This data set relates to ATP. The experiment in a line: switch fluorescence ratio, 500 uM ATP over buffer (Cy3 cluster intensity, sum of 5 cycles each) (fold (ratio)); higher = stronger signal-on switching upon ATP binding; sequences stand for … in TCGTCGGCAGCGTCAGATGTGTATAAGAGACAGTTTTTTTTTTTTTTTTTTTTTTTTT…TC. The following applies: aptamer strand: ATP DNA aptamer (quencher-CACCTGGGGGAGTATTGCGGAGGAAGG + anchor), 100 nM annealed; ATP concentration: 500 uM. The gist of the method: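 Cy3-labelled switching-strand clusters on a modified Illumina MiSeq flow-cell were annealed to 100 nM quencher-labelled ATP aptamer, imaged in selection buffer, then imaged after 15 min with 500 uM ATP at 22 °C. Five buffer/ATP cycles ran, with NaOH stripping and re-annealing between them. The fluorescence ratio is summed target-cycle over summed buffer-cycle Cy3 intensity per cluster, averaged per switch-domain sequence. Clusters outside 100-1000 RFU were excluded.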

The values below come from the supplement of paper PMC10126150.

± gives the standard deviation of the averaged measurements.
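Further: ATP exposure 15 min at 22 °C before imaging.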

Consider CTTGATTAGG, for which the switch fluorescence ratio worked out at 0.9981 ± 0.0037.

As for TGCGACTGG, the switch fluorescence ratio was found to be 0.9979 ± 0.0067.

Take GGGTTTTTTG: the switch fluorescence ratio came out at 1 ± 0.031.

As for ATTGGCCGCC, the switch fluorescence ratio was 0.991 ± 0.042.

As to GGATTAGTGT, the switch fluorescence ratio is 0.987 ± 0.032.

As to ATTTCTAGGA, the switch fluorescence ratio stood at 0.987 ± 0.015.

For the sequence CAAGATTCTT, the switch fluorescence ratio was 0.975 ± 0.056.

Consider GGTATGTGTT, for which the switch fluorescence ratio was 0.987 ± 0.04.

With TTTAGGCTGC, the switch fluorescence ratio came to 1.01 ± 0.021.

As to TTTCGTTTGC, the switch fluorescence ratio was 0.998 ± 0.046.

Consider TTAAAAAACT, for which the switch fluorescence ratio came out at 1.02 ± 0.031.

TAAGTCATGG: the switch fluorescence ratio stood at 0.9922 ± 0.0078.

For the sequence CCCGACAGCC, the switch fluorescence ratio amounted to 1.97 ± 0.3.

For CATCTCCCTG, the switch fluorescence ratio was determined as 1.06 ± 0.016.

On to GGGCGCAACG, for which the switch fluorescence ratio came out at 1.05 ± 0.073.

TGATGCAGAA: the switch fluorescence ratio worked out at 1.036 ± 0.0041.

On to AATGGTAGAA, for which the switch fluorescence ratio worked out at 0.986 ± 0.048.

Consider AGGTAAAGTT, for which the switch fluorescence ratio was 0.972 ± 0.014.

With GGGGGGGTT, the switch fluorescence ratio came to 1 ± 0.025.

As to CTGACCTGTA, the switch fluorescence ratio came to 1.093 ± 0.0021.

As for GGGTCTGGGT, the switch fluorescence ratio was determined as 0.984 ± 0.026.

Consider CGGGTAGCT, for which the switch fluorescence ratio turned out to be 1.01 ± 0.03.

As for AATTTTAAAT, the switch fluorescence ratio stood at 1.09 ± 0.21.

Regarding AAGTACGCGG, the switch fluorescence ratio is 1.01 ± 0.046.

Regarding CATTTTTTAG, the switch fluorescence ratio stood at 1.01 ± 0.016.

Take CAAGGGGGTT: the switch fluorescence ratio is 1.02 ± 0.05.

Turning to TTGAGGGCAT, the switch fluorescence ratio was 1.29 ± 0.45.

Regarding GCATTTGCTG, the switch fluorescence ratio stood at 0.9719 ± 0.0044.

Take CGGGACTCTT: the switch fluorescence ratio was 0.995 ± 0.017.

Regarding TACTTATGGA, the switch fluorescence ratio turned out to be 0.984 ± 0.043.

Take TTTGGTTGGA: the switch fluorescence ratio turned out to be 0.992 ± 0.038.

As to TTTCGACACG, the switch fluorescence ratio amounted to 0.989 ± 0.018.

As to GGGGGGTAAG, the switch fluorescence ratio was found to be 1 ± 0.021.

As to CAATGGGTAG, the switch fluorescence ratio came to 0.9989 ± 0.0018.

As for AACTAGGAGG, the switch fluorescence ratio amounted to 0.983 ± 0.012.

GTTCATGCAG: the switch fluorescence ratio turned out to be 0.993 ± 0.024.

As to ATTAATATGG, the switch fluorescence ratio was found to be 1.02 ± 0.015.

For the sequence GAAGTGTGGC, the switch fluorescence ratio was 1.08 ± 0.031.

On to ATTGGGTTGG, for which the switch fluorescence ratio worked out at 0.998 ± 0.019.

For the sequence CGGGGAAAAA, the switch fluorescence ratio is 1.06 ± 0.094.

With CGTGCAAAAC, the switch fluorescence ratio turned out to be 1.82 ± 0.88.

Consider GGACTTGGTC, for which the switch fluorescence ratio was 0.972 ± 0.019.

Turning to TATCGGTTGT, the switch fluorescence ratio was 1.03 ± 0.015.

Take TTGGGTTTGG: the switch fluorescence ratio turned out to be 0.986 ± 0.015.

In the case of CATTAGTCGT, the switch fluorescence ratio came to 0.996 ± 0.013.

With ACGGAGACGG, the switch fluorescence ratio was 0.979 ± 0.067.

As to AAGTCCACAC, the switch fluorescence ratio came out at 1.05 ± 0.041.

Turning to GGAAAGTACG, the switch fluorescence ratio worked out at 1.16 ± 0.045.

Consider GGTTTACTG, for which the switch fluorescence ratio stood at 1.03 ± 0.035.

With ACAGCCTGCC, the switch fluorescence ratio was found to be 1.3 ± 0.07.

On to GGAGGGGTTA, for which the switch fluorescence ratio came to 0.978 ± 0.015.

For the sequence CCCGGGGTAT, the switch fluorescence ratio came to 1.06 ± 0.057.

Regarding CTGGCTATTG, the switch fluorescence ratio came out at 1.022 ± 0.0028.

Turning to TCGAGAGATA, the switch fluorescence ratio stood at 1 ± 0.054.

Regarding GATTTTTTAC, the switch fluorescence ratio was 0.995 ± 0.037.

Take GTACGGGGTT: the switch fluorescence ratio was found to be 0.993 ± 0.023.

With CTGGGGCGGA, the switch fluorescence ratio was 0.983 ± 0.052.

Turning to GGACTTAGGG, the switch fluorescence ratio is 0.9839 ± 0.0075.

Take TTTGAGAAGG: the switch fluorescence ratio was found to be 0.948 ± 0.022.

Turning to AGTGATTTCG, the switch fluorescence ratio was 1.01 ± 0.043.

On to GTGAGGCGCT, for which the switch fluorescence ratio is 1.03 ± 0.011.

With AATTGTATCT, the switch fluorescence ratio was found to be 1.01 ± 0.063.

Regarding GGTTTGATGT, the switch fluorescence ratio came to 0.975 ± 0.023.

As to CGCCGATATA, the switch fluorescence ratio was found to be 1.12 ± 0.063.

For ATTTTCAGAT, the switch fluorescence ratio was 1.003 ± 0.0045.

As to TTTGGATGGC, the switch fluorescence ratio is 1.02 ± 0.057.

As for CCATGTTGCT, the switch fluorescence ratio is 0.9612 ± 0.0059.

In the case of ATGGGAGGGG, the switch fluorescence ratio is 1.01 ± 0.035.

For the sequence CCGGGGGGCG, the switch fluorescence ratio came out at 0.976 ± 0.053.

Consider TTTTATTTGT, for which the switch fluorescence ratio was 0.985 ± 0.0089.

For the sequence TTACCCATGG, the switch fluorescence ratio stood at 0.937 ± 0.064.

Consider GAATGGGTTA, for which the switch fluorescence ratio is 0.965 ± 0.018.

Turning to TGATTTCCAT, the switch fluorescence ratio came to 0.9996 ± 0.0064.

For GTGGTCTGTG, the switch fluorescence ratio worked out at 0.972 ± 0.018.

As for TGGAGGCTTT, the switch fluorescence ratio was 1.009 ± 0.0073.

With TTAGAGGCGT, the switch fluorescence ratio stood at 1.006 ± 0.0053.

For the sequence GTTAGACGGT, the switch fluorescence ratio worked out at 1.02 ± 0.041.

With AAATCGAGGT, the switch fluorescence ratio is 0.9917 ± 0.0052.

As to TATAAGGGCG, the switch fluorescence ratio came out at 0.976 ± 0.058.

Take CAACTTGGGA: the switch fluorescence ratio was determined as 1.05 ± 0.015.

Take TTTTTCAATA: the switch fluorescence ratio is 1.01 ± 0.023.

Turning to ACCGGGAGGT, the switch fluorescence ratio stood at 1.01 ± 0.049.

In the case of TTGAAATCTT, the switch fluorescence ratio worked out at 1.78 ± 1.

On to GTTGAATTTT, for which the switch fluorescence ratio came to 1.01 ± 0.032.

As for AGGTTTTTGG, the switch fluorescence ratio was 0.963 ± 0.012.

Consider ATTCGTCATA, for which the switch fluorescence ratio stood at 1.04 ± 0.075.

As to CCAGGCTCTG, the switch fluorescence ratio turned out to be 0.993 ± 0.006.

For the sequence TAGGGTTGGT, the switch fluorescence ratio was 1.01 ± 0.046.

As to TGTTTTCGT, the switch fluorescence ratio turned out to be 1.02 ± 0.011.

In the case of CAGGAGTGTA, the switch fluorescence ratio came out at 1.03 ± 0.036.

AGGGTATTAG: the switch fluorescence ratio was 0.995 ± 0.025.

With GATGGAGTTT, the switch fluorescence ratio is 1.03 ± 0.011.

Regarding CGGTGAGGCT, the switch fluorescence ratio is 0.984 ± 0.017.

Take CTGGTCCGGT: the switch fluorescence ratio was 0.994 ± 0.018.

On to GACAGGGGTT, for which the switch fluorescence ratio worked out at 1.04 ± 0.015.

For the sequence AATATCTTGC, the switch fluorescence ratio is 1.05 ± 0.028.

As for GCCAGTATGT, the switch fluorescence ratio was found to be 1.08 ± 0.086.

With TCGGTTTGGT, the switch fluorescence ratio amounted to 1.01 ± 0.024.

Turning to GTCGTAACAG, the switch fluorescence ratio came to 0.9857 ± 0.0047.

In the case of TTTTGAATGG, the switch fluorescence ratio worked out at 1.02 ± 0.04.

Consider GGTTAAGCCT, for which the switch fluorescence ratio was 1.05 ± 0.043.

For GTGGTTAGGG, the switch fluorescence ratio is 1.01 ± 0.041.

For the sequence ATCGGAATGG, the switch fluorescence ratio amounted to 1.05 ± 0.024.

With AGAGGGTTGG, the switch fluorescence ratio is 0.986 ± 0.022.

Take GTGTGACTCG: the switch fluorescence ratio was determined as 1.03 ± 0.062.

Regarding TTGGTACCGC, the switch fluorescence ratio stood at 1 ± 0.048.

As for AAGGCAGGGG, the switch fluorescence ratio turned out to be 1.05 ± 0.044.

Turning to ATAGAATCAG, the switch fluorescence ratio turned out to be 0.975 ± 0.038.

For the sequence TATCTATGTA, the switch fluorescence ratio amounted to 1.01 ± 0.02.

Take GCTGATGTAT: the switch fluorescence ratio was 0.999 ± 0.026.

On to AAACTTTAGT, for which the switch fluorescence ratio was found to be 0.987 ± 0.018.

As to AAATGTCTCT, the switch fluorescence ratio worked out at 1.01 ± 0.012.

As for TATTTAGTTG, the switch fluorescence ratio was found to be 1 ± 0.024.

For TCGGCGGTTT, the switch fluorescence ratio was determined as 0.977 ± 0.058.

In the case of ATTTCAATTA, the switch fluorescence ratio was 1.01 ± 0.065.

Take AATTGGTGCG: the switch fluorescence ratio was found to be 0.985 ± 0.035.

Take AGGATCTACT: the switch fluorescence ratio was found to be 1.01 ± 0.021.

Turning to AACGGGTTAC, the switch fluorescence ratio was found to be 1.14 ± 0.019.

Take CCTTTTTGGT: the switch fluorescence ratio turned out to be 1.016 ± 0.01.

On to GAAGTCCGGT, for which the switch fluorescence ratio is 0.955 ± 0.024.
